Assay results taken from the supplement of paper PMC9112550, “Optimization of the antimicrobial peptide Bac7 by deep mutational scanning” (BMC Biology, 2022).

What follows are sequences tested on Escherichia coli TOP10 (assay: shrunken log2 fold change of peptide-encoding DNA abundance (4.5 h post-induction vs induction); higher = less antimicrobial activity (less host growth inhibition)). Conditions: time post-induction: 4.5 h; library: site-saturation at positions 5, 18, 19, 20.
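Also: peptides expressed intracellularly from a pBAD plasmid library in pooled LB shake-flask culture, induced with 0.3% L-arabinose, DNA abundance read by NGS, three biological replicates, DESeq2 with apeglm shrinkage.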

Sequence	shrunken log2 fold change
RRIRARPPRLPRPRPRPLDIPRP	0.0659
RRIRARPPRLPRPRPRPLDRPRP	-0.233
RRIRARPPRLPRPRPRPLETPRP	0.9
RRIRARPPRLPRPRPRPLFMPRP	-0.166
RRIRARPPRLPRPRPRPLGCPRP	0.904
RRIRARPPRLPRPRPRPLGVPRP	1.44
RRIRARPPRLPRPRPRPLIDPRP	0.647
RRIRARPPRLPRPRPRPLLRPRP	0.103
RRIRARPPRLPRPRPRPLMIPRP	-0.138
RRIRARPPRLPRPRPRPLNCPRP	-0.08
RRIRARPPRLPRPRPRPLNTPRP	-0.169
RRIRARPPRLPRPRPRPLSLPRP	-0.0486
RRIRARPPRLPRPRPRPLSTPRP	0.319
RRIRARPPRLPRPRPRPLSYPRP	-0.00336
RRIRARPPRLPRPRPRPLVNPRP	0.0552
RRIRARPPRLPRPRPRPLWSPRP	0.263
RRIRARPPRLPRPRPRPLYLPRP	-0.367
RRIRARPPRLPRPRPRPMCCPRP	0.335
RRIRARPPRLPRPRPRPMDCPRP	0.181
RRIRARPPRLPRPRPRPMDMPRP	-0.128
RRIRARPPRLPRPRPRPMDTPRP	0.143
RRIRARPPRLPRPRPRPMIAPRP	0.263
RRIRARPPRLPRPRPRPMIWPRP	0.415
RRIRARPPRLPRPRPRPMKCPRP	-0.0407
RRIRARPPRLPRPRPRPMMNPRP	0.198

Sequence	shrunken log2 fold change
RRIRARPPRLPRPRPRPMMSPRP	0.186
RRIRARPPRLPRPRPRPMRAPRP	1.25
RRIRARPPRLPRPRPRPMRHPRP	0.38
RRIRARPPRLPRPRPRPMRIPRP	0.155
RRIRARPPRLPRPRPRPMRPPRP	0.342
RRIRARPPRLPRPRPRPMSAPRP	0.361
RRIRARPPRLPRPRPRPMSDPRP	0.56
RRIRARPPRLPRPRPRPMSMPRP	0.0853
RRIRARPPRLPRPRPRPMTFPRP	-0.191
RRIRARPPRLPRPRPRPMWIPRP	0.249
RRIRARPPRLPRPRPRPMWMPRP	0.0208
RRIRARPPRLPRPRPRPMYDPRP	0.15
RRIRARPPRLPRPRPRPMYGPRP	0.22
RRIRARPPRLPRPRPRPMYTPRP	-0.0517
RRIRARPPRLPRPRPRPNACPRP	-0.175
RRIRARPPRLPRPRPRPNADPRP	0.825
RRIRARPPRLPRPRPRPNAGPRP	0.315
RRIRARPPRLPRPRPRPNAIPRP	0.201
RRIRARPPRLPRPRPRPNAMPRP	0.272
RRIRARPPRLPRPRPRPNDIPRP	-0.448
RRIRARPPRLPRPRPRPNFQPRP	-0.0343
RRIRARPPRLPRPRPRPNFRPRP	0.376
RRIRARPPRLPRPRPRPNGAPRP	0.0281
RRIRARPPRLPRPRPRPNGIPRP	-0.109
RRIRARPPRLPRPRPRPNIPPRP	-0.223

Sequence	shrunken log2 fold change
RRIRARPPRLPRPRPRPNIYPRP	-0.418
RRIRARPPRLPRPRPRPNKGPRP	-0.0254
RRIRARPPRLPRPRPRPNKPPRP	-0.0887
RRIRARPPRLPRPRPRPNLHPRP	0.0181
RRIRARPPRLPRPRPRPNLSPRP	-0.0536
RRIRARPPRLPRPRPRPNLVPRP	-0.0779
RRIRARPPRLPRPRPRPNMFPRP	-0.0712
RRIRARPPRLPRPRPRPNQYPRP	-0.801
RRIRARPPRLPRPRPRPNRFPRP	0.145
RRIRARPPRLPRPRPRPNRRPRP	0.366
RRIRARPPRLPRPRPRPNSTPRP	0.0264
RRIRARPPRLPRPRPRPNWGPRP	-0.267
RRIRARPPRLPRPRPRPNWIPRP	0.00102
RRIRARPPRLPRPRPRPNYRPRP	0.0835
RRIRARPPRLPRPRPRPPAFPRP	1.04
RRIRARPPRLPRPRPRPPARPRP	0.874
RRIRARPPRLPRPRPRPPCSPRP	0.752
RRIRARPPRLPRPRPRPPDHPRP	0.683
RRIRARPPRLPRPRPRPPEGPRP	0.783
RRIRARPPRLPRPRPRPPFYPRP	0.14
RRIRARPPRLPRPRPRPPHCPRP	0.521
RRIRARPPRLPRPRPRPPHIPRP	0.455
RRIRARPPRLPRPRPRPPHPPRP	0.527
RRIRARPPRLPRPRPRPPICPRP	-0.0154
RRIRARPPRLPRPRPRPPIRPRP	-0.131

Sequence	shrunken log2 fold change
RRIRARPPRLPRPRPRPPITPRP	0.261
RRIRARPPRLPRPRPRPPKDPRP	1.78
RRIRARPPRLPRPRPRPPKIPRP	0.327
RRIRARPPRLPRPRPRPPKKPRP	0.342
RRIRARPPRLPRPRPRPPLCPRP	0.762
RRIRARPPRLPRPRPRPPMFPRP	0.283
RRIRARPPRLPRPRPRPPNTPRP	0.289
RRIRARPPRLPRPRPRPPPEPRP	1.24
RRIRARPPRLPRPRPRPPPFPRP	0.762
RRIRARPPRLPRPRPRPPQCPRP	0.585
RRIRARPPRLPRPRPRPPQWPRP	0.814
RRIRARPPRLPRPRPRPPVPPRP	0.638
RRIRARPPRLPRPRPRPPWGPRP	0.48
RRIRARPPRLPRPRPRPPWVPRP	0.254
RRIRARPPRLPRPRPRPPYHPRP	-0.102
RRIRARPPRLPRPRPRPQAIPRP	0.281
RRIRARPPRLPRPRPRPQCNPRP	-0.104
RRIRARPPRLPRPRPRPQCRPRP	-0.161
RRIRARPPRLPRPRPRPQFAPRP	0.402
RRIRARPPRLPRPRPRPQFNPRP	-0.0606
RRIRARPPRLPRPRPRPQFQPRP	0.0187
RRIRARPPRLPRPRPRPQGKPRP	0.128
RRIRARPPRLPRPRPRPQHMPRP	-0.414
RRIRARPPRLPRPRPRPQHWPRP	0.0917
RRIRARPPRLPRPRPRPQKLPRP	0.298

Sequence	shrunken log2 fold change
RRIRARPPRLPRPRPRPQKTPRP	0.0194
RRIRARPPRLPRPRPRPQNHPRP	-0.446
RRIRARPPRLPRPRPRPQQMPRP	0.12
RRIRARPPRLPRPRPRPQTDPRP	0.275
RRIRARPPRLPRPRPRPQTYPRP	0.00151
RRIRARPPRLPRPRPRPQWQPRP	-0.00057
RRIRARPPRLPRPRPRPQWVPRP	0.124
RRIRARPPRLPRPRPRPRAMPRP	0.808
RRIRARPPRLPRPRPRPRCDPRP	0.324
RRIRARPPRLPRPRPRPRDFPRP	0.0137
RRIRARPPRLPRPRPRPREKPRP	0.383
RRIRARPPRLPRPRPRPREPPRP	0.199
RRIRARPPRLPRPRPRPRHFPRP	0.157
RRIRARPPRLPRPRPRPRHLPRP	0.11
RRIRARPPRLPRPRPRPRHWPRP	0.511
RRIRARPPRLPRPRPRPRIGPRP	0.267
RRIRARPPRLPRPRPRPRIPPRP	0.0568
RRIRARPPRLPRPRPRPRKGPRP	0.365
RRIRARPPRLPRPRPRPRLVPRP	0.512
RRIRARPPRLPRPRPRPRMPPRP	0.251
RRIRARPPRLPRPRPRPRNIPRP	0.157
RRIRARPPRLPRPRPRPRPQPRP	0.731
RRIRARPPRLPRPRPRPRPVPRP	0.771
RRIRARPPRLPRPRPRPRQDPRP	0.34
RRIRARPPRLPRPRPRPRQMPRP	1.2

Sequence	shrunken log2 fold change
RRIRARPPRLPRPRPRPRQNPRP	0.723
RRIRARPPRLPRPRPRPRQWPRP	0.68
RRIRARPPRLPRPRPRPRSDPRP	0.257
RRIRARPPRLPRPRPRPRTPPRP	0.636
RRIRARPPRLPRPRPRPRVNPRP	0.631
RRIRARPPRLPRPRPRPRVVPRP	0.624
RRIRARPPRLPRPRPRPRWCPRP	0.0438
RRIRARPPRLPRPRPRPRWFPRP	0.623
RRIRARPPRLPRPRPRPRYRPRP	0.165
RRIRARPPRLPRPRPRPSAGPRP	0.65
RRIRARPPRLPRPRPRPSAIPRP	0.173
RRIRARPPRLPRPRPRPSAWPRP	0.797
RRIRARPPRLPRPRPRPSCDPRP	0.323
RRIRARPPRLPRPRPRPSEMPRP	0.29
RRIRARPPRLPRPRPRPSGHPRP	0.168
RRIRARPPRLPRPRPRPSHCPRP	-0.101
RRIRARPPRLPRPRPRPSHKPRP	0.0213
RRIRARPPRLPRPRPRPSLGPRP	0.188
RRIRARPPRLPRPRPRPSMWPRP	0.45
RRIRARPPRLPRPRPRPSNMPRP	-0.28
RRIRARPPRLPRPRPRPSPFPRP	0.0195
RRIRARPPRLPRPRPRPSPHPRP	0.187
RRIRARPPRLPRPRPRPSPTPRP	0.328
RRIRARPPRLPRPRPRPSSQPRP	0.144
RRIRARPPRLPRPRPRPSSYPRP	-0.342
